Laboratory results from article doi:10.1101/2024.10.11.617910.

Biological target: pyroglutamate beta-amyloid peptide (pGlu3-Aβ)
Test: SiMoA

B1: Lecanemab (antibody, V domains shown)
VH: EVQLVESGGGLVQPGGSLRLSCSASGFTFSSFGMHWVRQAPGKGLEWVAYISSGSSTIYYGDTVKGRFTISRDNAKNSLFLQMSSLRAEDTAVYYCAREGGYYYGRSYYTMDYWGQGTTVTVSS
VL: DVVMTQSPLSLPVTPGAPASISCRSSQSIVHSNGNTYLEWYLQKPGQSPKLLIYKVSNRFSGVPDRFSGSGSGTDFTLRISRVEAEDVGIYYCFQGSHVPPTFGPGTKLEIK
limit of detection (LoD): 4 pM
